Publication PMC3334367 (Molecular Cell, 2012)

T1: GST-RNC (GST fused N-terminal RNC domain of Kog1, amino acids 1-637) (yeast, UniProt P38873 1-637)
T1 sequence (looked up): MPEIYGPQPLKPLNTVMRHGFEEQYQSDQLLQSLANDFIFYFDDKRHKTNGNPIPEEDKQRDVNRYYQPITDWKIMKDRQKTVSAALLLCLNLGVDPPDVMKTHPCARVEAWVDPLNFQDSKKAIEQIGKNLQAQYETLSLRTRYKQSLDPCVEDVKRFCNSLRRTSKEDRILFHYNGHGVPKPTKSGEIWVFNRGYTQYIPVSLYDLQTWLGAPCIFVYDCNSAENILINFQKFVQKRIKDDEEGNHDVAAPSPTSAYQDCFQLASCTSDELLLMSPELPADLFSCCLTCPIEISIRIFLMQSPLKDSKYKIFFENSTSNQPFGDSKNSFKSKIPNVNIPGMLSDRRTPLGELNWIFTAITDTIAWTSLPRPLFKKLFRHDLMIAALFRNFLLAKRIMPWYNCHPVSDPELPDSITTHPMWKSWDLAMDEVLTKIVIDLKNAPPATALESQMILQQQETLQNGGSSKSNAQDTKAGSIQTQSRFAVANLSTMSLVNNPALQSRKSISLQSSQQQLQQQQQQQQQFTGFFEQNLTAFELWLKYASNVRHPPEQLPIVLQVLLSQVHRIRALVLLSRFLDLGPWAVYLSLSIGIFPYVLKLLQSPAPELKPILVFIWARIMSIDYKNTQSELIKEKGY

B1: His tagged recombinant Rho1 (natural protein, yeast, UniProt P06780 1-209, looked up)
chain: MSQQVGNSIRRKLVIVGDGACGKTCLLIVFSKGQFPEVYVPTVFENYVADVEVDGRRVELALWDTAGQEDYDRLRPLSYPDSNVVLICFSIDLPDSLENVQEKWIAEVLHFCQGVPIILVGCKVDLRNDPQTIEQLRQEGQQPVTSQEGQSVADQIGATGYYECSAKTGYGVREVFEAATRASLMGKSKTNGKAKKNTTEKKKKKCVLL
B2: His tagged recombinant Tap42 (natural protein, yeast, UniProt Q04372 1-366, looked up)
chain: MASVTEQFNDIISLYSTKLEHTSLRQDSPEYQGLLLSTIKKLLNLKTAIFDRLALFSTNETIDDVSTASIKFLAVDYYLGLLISRRQSNDSDVAQRQSMKLIYLKKSVESFINFLTLLQDYKLLDPLVGEKLGNFKDRYNPQLSELYAQPKNNKDLSGAQLKRKEKIELFQRNKEISTKLHCLELELKNNDEDHDHDELLRELYLMRLHHFSLDTINNIEQNLFECEMLSNFLKNSVHEVKSSGTQIRKESNDDDSTGFTDKLENINKPLIDKKGQVLRNFTLVDKRQQLQQKVRGYGQYGPTMSVEEFLDKEFEEGRVLQGGEEPEQAPDEENMDWQDRETYKAREWDEFKESHAKGSGNTMNRG

Biological target: T1, GST-RNC (GST fused N-terminal RNC …)
Test: pull-down

Row | Binder | binding result
1 | B1 | binds
2 | B2 | binds
